# Target: T1, Raf-1 RBD (GST-RBD) (UniProt P04049 P04049:51-131)
# Experiment: filter; scarcely bound; no inhibition of Ras binding at 12.5 uM
# Conditions: tags: GST fusion, expressed in E. coli; label: 32P
row,Binder,binding result
1,clone 21.12 (ssRNA) RNA: GGGAGAUCAGAAUAAACGCUCAAGCGACAAGCAGCAGAUAAAGUUGAGCGCAACGCCGCUACAGAACCAAAUUAACAUGUAUGUUCGACAUGAGGCCCCUGCAGGGCG,no binding

# Target: T1, Raf-1 RBD (GST-RBD)
# Experiment: filter; PBS + 5 mM MgCl2, 37 C
# Conditions: tags: GST fusion, expressed in E. coli; label: 5'-32P
# Procedure: (§1) An RNA (4 nM) of which the 5'-terminus was labeled and 50 to 1,250 nM of GST-RBD were incubated in 600 µl of a binding buffer at 37° C. for 30 minutes. The culture was filtered with a nitrocellulose filter, and the radioactivity on the filter was measured. The Kd value was calculated using a software: Kalleider Graph (Bell, S. D., et al., (1998) J. Biol. Chem. 273, 14309–14314).
row,Binder,Kd [nM]
1,RNA aptamer SEQ ID NO:28 (3'-truncated) (ssRNA) RNA: GGGAGUGGAGGAAUUCAUCGAGGCAUAUGUCGACUCCGUCUUCCUUCAAACCAGUUAUAAAUUGGUUUUAGCAUAUGCCU,176
2,RNA aptamer SEQ ID NO:26 (ssRNA) RNA: GGGAGUGGAGGAAUUCAUCGAGGCAUGACCUCCCGUGGCAGUAGGGGUAAAAAUUAUCUUCCUACACUUCUCAUGCCUUAGCGACAGCAAGCUUCUGC,295
3,RNA aptamer SEQ ID NO:25 (ssRNA) RNA: GGGAGUGGAGGAAUUCAUCGAGGCAUAUGUCGACUCCGUCUUCCUUCAAACCAGUUAUAAAUUGGUUUUAGCAUAUGCCUUAGCGACAGCAAGCUUCUGC,124

# Target: T1, Raf-1 RBD (GST-RBD)
# Experiment: filter; group 1; value only in figure; PBS + 5 mM MgCl2, 37 C
# Conditions: tags: GST fusion, expressed in E. coli; label: 32P
# Procedure: The interaction between the 10 RNAs among them and GST-RBD was examined by a binding assay using a nitrocellulose filter.
# as §1
row,Binder,binding result
1,clone 21.07 (ssRNA) RNA: GGGAGAUCAGAAUAAACGCUCAAUUGACUCAAUGGCGUACAAUGGAUUCGUUCUCAUAACCAAAACCCUUACCCCUUGGACUGUUCGACAUGAGGCCCCUGCAGGGCG,binds
2,clone 21.01 (ssRNA) RNA: GGGAGAUCAGAAUAAACGCUCAACUGAUCAAUGGCGUACAAUGGAUUCGUUCUCAUAACCAAAACCCUUACCCCUUGGACUGAUUCGACAUGAGGCCCCUGCAGGGCG,binds

# Target: T1, Raf-1 RBD (GST-RBD)
# Experiment: filter; group 1; percent bound only in figure
# Conditions: tags: GST fusion, expressed in E. coli; label: 32P
row,Binder,binding result
1,clone 21.06 (ssRNA) RNA: GGGAGAUCAGAAUAAACGCUCAACUGAUCAAUGGCGUACAAUGGAUUCGUUCUCAUAACCAAAACCCUUACCCCUUGGACUGUUUCGACAUGAGGCCCCUGCAGGGCG,binds
2,clone 21.04 (ssRNA) RNA: GGGAGAUCAGAAUAAACGCUCAACUGAUCAAUGGCGUACAAUGGAUUCGCUCUCAUAACCAAAACCCUUACCCCUUGGACUGCUUCGACAUGAGGCCCCUGCAGGGCG,binds
3,clone 21.05 (ssRNA) RNA: GGGAGAUCAGAAUAAACGCUCAACUGAUCAAUGGCGUACAAUGGAUUCGUUCUCAUAACCAAAACCCUUACUCCUUGGACUGCUUCGACAUGAGGCCCCUGCAGGGCG,binds
4,clone 21.03 (ssRNA) RNA: GGGAGAUCAGAAUAAACGCUCAACUGAUCAAUGGCGUACAAUGGAUUCGUUCUCAUAACCAAAACCCUUACCCCUUGGACUGCUUCGACAUGAGGCCCCUGCAGGGCG,binds
5,clone 21.08 (ssRNA) RNA: GGGAGAUCAGAAUAAACGCUCAAUUGAAGAUCGUACAAUGGAUUCGAUCAUAACCCGAAGUUUUUAAACACUCUUUACCUGUAUUCGACAUGAGGCCCCUGCAGGGCG,binds
6,clone 21.02 (ssRNA) RNA: GGGAGAUCAGAAUAAACGCUCAACUGAUCAAUGGCGUACAAUGGAUUCGUUCUCAUAACCAAAACCCUUACCCCUGGACUGAUUCGACAUGAGGCCCCUGCAGGGCG,binds

# From US6995249, “Nucleic acid capable of binding specifically to Ras target protein” (Japan Science and Technology Corporation)
